Data set [1] deals with the molecule itself. The experiment in a line: cryo-EM structure.
Data set [2] concerns the molecule itself. Description: cryo-EM structure. The source holds these as a separate data set.

The values that follow come from paper PMC8254080 (Biochemistry and Biophysics Reports, 2021).

Like-named read-outs stand apart in the source and are kept apart here.

B1: Shigella MxiH (type 3 needle filament protomer) with N-terminal Strep-tag II and factor Xa cleavage site (natural protein, UniProt P0A223 1-83, looked up)
chain: MSVTVPNDDWTLSSLSETFDDGTQTLQGELTLALDKLAKNPSNPQLLAEYQSKLSEYTLYRNAQSNTVKVIKDVDAAIIQNFR
Take B1: the binding result in “cryo-EM structure [1]” is reported as “binds”.

B2: Salmonella PrgI (type 3 needle filament protomer, SPI-1) (natural protein, Salmonella (strain SB905))
chain: MATPWSGYLDDVSAKFDTGVDNLQTQVTEALDKLAAKPSDPALLAAYQSKLSEYNLYRNAQSNTVKVFKDIDAAIIQNFR
For B2, the binding result in the data set “cryo-EM structure [2]” is reported as “binds”.
